Assay results published in paper PMC4788495 (Journal of bioenergetics and biomembranes, 2008).

B2: cytochrome b subunit of the wild-type R. sphaeroides cytochrome bc1 complex (Rsbc1) (natural protein)
chain: GIPHDHYEPRTGIEKWLHSRLPIVALAYDTIMIPTPRNLNWMWIWGVVLAFCLVLQIVTGIVLAMHYTPHVDLAFASVEHIMRNVNGGFMLRYLHANGASLFFIAVYLHIFRGLYYGSYKAPREVTWIVGMLIYLAMMATAFMGYVLPWGQMSFWGATVITGLFGAIPGIGHSIQTWLLGGPAVDNATLNRFFSLHYLLPFVIAALVAIHIWAFHSTGNNNPTGVEVRRTSKAEAQKDTVPFWPYFIIKDVFALAVVLLVFFAIVGFMPNYLGHPDNYIEANPLSTPAHIVPEWYFLPFYAILRAFTADVWVVQIANFISFGIIDAKFFGVLAMFGAILVMALVPWLDTSPVRSGRYRPMFKIYFWLLAADFVILTWVGAQQTTFPYDWISLIASAYWFAYFLVILPILGAIEKPVAPPATIEEDFNA
B3: cytochrome b S287R, subunit of the double mutant S287R(cyt b)/V135S(ISP) Rsbc1 (natural protein, R. sphaeroides, UniProt Q02761 1-445, looked up)
chain: MSGIPHDHYEPRTGIEKWLHSRLPIVALAYDTIMIPTPRNLNWMWIWGVVLAFCLVLQIVTGIVLAMHYTPHVDLAFASVEHIMRNVNGGFMLRYLHANGASLFFIAVYLHIFRGLYYGSYKAPREVTWIVGMLIYLAMMATAFMGYVLPWGQMSFWGATVITGLFGAIPGIGHSIQTWLLGGPAVDNATLNRFFSLHYLLPFVIAALVAIHIWAFHSTGNNNPTGVEVRRTSKAEAQKDTVPFWPYFIIKDVFALAVVLLVFFAIVGFMPNYLGHPDNYIEANPLRTPAHIVPEWYFLPFYAILRAFTADVWVVQIANFISFGIIDAKFFGVLAMFGAILVMALVPWLDTSPVRSGRYRPMFKIYFWLLAADFVILTWVGAQQTTFPYDWISLIASAYWFAYFLVILPILGAIEKPVAPPATIEEDFNAHYSPATGGTKTVVAE

What was measured:
[1] = molecular target: B3; assay: crystal structure
[2] = molecular target: B2; assay: SEC
crystal structure [3] = molecular target: the molecule itself; assay: crystal structure
crystal structure [4] = molecular target: the molecule itself; assay: crystal structure; remark: listed apart in the source
[5] = molecular target: B2; assay: crystal structure

B1: cytochrome c1 subunit of the R. sphaeroides cytochrome bc1 complex (Rsbc1), his-tag at the C-terminus (natural protein, UniProt Q02760 23-285, looked up)
chain: AGGGHVEDVPFSFEGPFGTFDQHQLQRGLQVYTEVCAACHGMKFVPIRSLSEPGGPELPEDQVRAYATQFTVTDEETGEDREGKPTDHFPHSALENAADLSLMAKARAGFHGPMGTGISQLFNGIGGPEYIYSVLTGFPEEPPKCAEGHEPDGFYYNRAFQNGSVPDTCKDANGVKTTAGSWIAMPPPLMDDLVEYADGHDASVHAMAEDVSAFLMWAAEPKLMARKQAGFTAVMFLTVLSVLLYLTNKRLWAGVKGKKKTNV
B1: binds [1]; binds [2].

B2: binds (crystal structure [3]).

In the case of B3, the “stoichiometry N” value (crystal structure [4]) is reported as 2.

B4: Rieske iron-sulfur protein V135S, subunit of the double mutant S287R(cyt b)/V135S(ISP) Rsbc1 (natural protein, R. sphaeroides, UniProt Q02762 1-187, looked up)
chain: MSNAEDHAGTRRDFLYYATAGAGAVATGAAVWPLINQMNPSADVQALASIFVDVSSVEPGVQLTVKFLGKPIFIRRRTEADIELGRSVQLGQLVDTNARNANIDAGAEATDQNRTLDEAGEWLVMWGVCTHLGCSPIGGVSGDFGGWFCPCHGSHYDSAGRIRKGPAPENLPIPLAKFIDETTIQLG
B4: binds [1].

B5: Rieske iron-sulfur protein subunit of the wild-type R. sphaeroides cytochrome bc1 complex (Rsbc1) (natural protein)
chain: GTRRDFLYYATAGAGAVATGAAVWPLINQMNPSADVQALASIFVDVSSVEPGVQLTVKFLGKPIFIRRRTEADIELGRSVQLGQLVDTNARNANIDAGAEATDQNRTLDEAGEWLVMWGVCTHLGCVPIGGVSGDFGGWFCPCHGSHYDSAGRIRKGPAPENLPIPLAKFIDETTIQLG
B5: binds [5].
